A word on the Kd: it is the free concentration of one partner at which half of the binding sites on the other are occupied at equilibrium, for simple one-to-one binding. Low values mean tighter binding, high ones weaker binding.

The values below come from paper PMC7526519.

Holding throughout (assay): SPR
For orientation: In SPR one partner is held on a chip, and binding of the other changes the refractive index at the surface.

In test [1] the target is Malayan pangolin ACE2 ectodomain fused with mouse Fc (Malayan pangolin).
Test [2] has as its target little brown bat ACE2 ectodomain fused with mouse Fc (little brown bat).
For test [3], the target named is alpaca ACE2 ectodomain fused with mouse Fc (alpaca).

For “SARS-CoV receptor binding domain (RBD), His-tagged (from UniProt P59594 306-527) (domain or fragment)”, the fold lower affinity than SARS-CoV-2 RBD to the same ACE2 is 4 fold in test [1] and 40 fold in test [2].

With “SARS-CoV-2 receptor binding domain (RBD), His-tagged (from UniProt P0DTC2 319-541) (domain or fragment)”, in test [3], the Kd was found to be 16.5 µM.
